From the DeepSol protein solubility set come the findings set out here.

The series is described as follows: soluble on expression in E. coli; label from the status in PepcDB or PDB records.
Take “MGSDKIHHHHHHMDITLFKTLLKVAAIGNISKAAAVLCVTQSAVSRRLKQLEDHIGKPLLIRSGNAVRPTEAGQFVLAKAQQIVDLESQIVDKLNVNEPKQRISLCCTPAFGIGRLPSIVSAFMADNAESADLNFVFNMPEQALEGIENGRFDLAIIEHCDDLNMAGHRGYPLPDDEMIFLSAPSLGIDSPAPSIEQLFDKRLYLKNEQGCARRFLDKNLALTGHSITEFANIIYFDDLQFIMREVLAGKGISFVPIGLVVDELCRHTLMAHRIADFDHFYPRTIILGRRAPSPLLLSFINTIYIAFGMPCPSIFHTEAPFPPEGFPESL”: the “soluble on expression in E. coli” value is on record as “not soluble”.
The same measure for “GPGSMAKSSRSKWKKMHRRQRAQAEATNTVKRICLLNKKLKLTVKGGISAVPPQEPEKRFHFLNPVLDSRVPNTRKNLNNNYRAELNHVEYDYTKPLKLAPPKTNMYGKTDVDAPHPMTVMYETIDADTPLAGHALTKADMERLARRQAQQESEASAAVADAEKDASKEDGDNADDGPEEYVFGMEDAAPRRARGQHKTSAKKKGSVAPKALKGAASASVGASSSVSETGSSSRMLAAAAAAMTNEEEEADHRTRNGGVTAVNKIASMQTMRKKNGTMVSAGGASKMKKVGQLGGSSGTRVVSSGGKVARKDVGNAKSGSKR”: “soluble”.
On to “SARRYDELPHYPGIVDGPAALASFPETVPAVPGPYGPHRPPQPLPPGLDSDGLKREKDEIYGHPLFPLLALVFEKCELATCSPRDGAGAGLGTPPGGDVCSSDSFNEDIAAFAKQVRSERPLFSSNPELDNLMIQAIQVLRFHLLELEKGKMPIDLVIEDRDGGCREDFEDYPASCPSLPDQNNMWIRDHEDSGSVHLGTPGPSSGGLASQSGDNSSDQGDGLDTSVASPSSGGEDEDLDQERRRNKKRGIFPKVATNIMRAWLFQHLSHPYPSEEQKKQLAQDTGLTILQVNNWFINARRRIVQPMIDQSNRTGQGAAFSPEGQPIGGYTETQPHVAVRPPGSVGMSLNLEGEWHYL”, for which the “soluble on expression in E. coli” value was “soluble”.
The same measure for “MPDISIILLGNYAPDQVIHARLLFMRMEQVPGGHHLQILQFRFTIPFRQADFCSLDQSDVMCSETHCYYLMNLKVGAFFETAQNILMIRWLFS”: “not soluble”.
The same measure for “MTEQLPNCPECGSAYAYEDRGLFICPECGHEWSPTEEVAEEGLVVKDSNGNLLADGDSVTVIKDLKVKGASGAIKQGTKVKNIRLVEGDHNIDCKVDGFGPMKLKSEFVKKN”: “not soluble”.
Regarding “MTILFARNIEKGFGDRTLFTLPSLEIQAQDRIGIVGVNGAGKSTLLQILSKEIEADKGIVTHHSSISIIPQISEELPKVASSTAKGKWNISNISNSMSGGERMRLKIAHALEQDAGILFADEPTSHLDMFGTEQLEKALLSYKGALVLISHDREFLDNICTKIIEIEDGIIQEYKGNYSNYRKQKERERTQKQAEYEQYINEKERLEKSILQKKQRASSMTKIPTRFSSSESKLYKLSGANGQEQVSKAAKALETRLEKLEKKEKPKELSQAQFDVQYHTPIHSKVAVQFNKATKKIGDLTLFKNMNGTIAPGAKLAILGANGSGKTTLFNMLLANERGIQLSKSCKIGYFEQTLSILKTDKTILENVLEETNYTESFVRTILARLLFRREDVHKPVHVLSGGERMKVALAKVFLGNYNMLLLDEPTNYLDLATQEELESMLQEYPGTILFISHDRAFIRSVADHILQVDESEPRVFHGNYEQYTNRTADASVNVTAQELLRLQTKLTEIIGRISIPNHHDDITSLEQEYETLLVKIRKCKEAL”, the “soluble on expression in E. coli” value was “not soluble”.
The same measure for “MNDNLYSLIEQRILVLDGAMGTMIQRHGLDEQDYRGERFASHDHPLKGNNDLLVITRPDIIRSIHCDFLDAGADIIETCTFNANPISQSDYQLQDLTRELNVAAAKIARSAADEFTAKTPDKPRFVAGSIGPTNKTLSLSPDVNNPGFRAVTFQEMVDNYTAQLEGLHEGGVDLLLVETVFDTLNCKAALYAIEEYAVKTGWQVPVMVSGTVVDASGRTLSGQTTEAFWISISHMPSLLSVGLNCALGSKQMRPFIEALSNIAESYVSVYPNAGLPNEFGEYDDSPEYMAAQIAGFAESGFVNIVGGCCGTTPTHIRAIAEAVKTLPPRKRPANKHVLRLSGLEPLVVDETTGFINVGERTNVTGSRKF”: “not soluble”; for “MNQHNTRLIRLPEVLHRTGYGKAWIYHLINQNRFPSPVKIGARSVAFIESEVDEWIQLTIENSRKHVA”: “soluble”; for “MPLPIAAPPILASTLTLLLATTPTAAALTPEQHAAALVAQMTRQEKIAQTMNAAPAIPRLGIPAYDWWSEGLHGIARNGYATVFPQAIGLAASWNTDLLQHVGTVTSTEARAKFNLTGGPGKDHPRYAGLTLWSPNINIFRDPRWGRGMETYGEDPYLTSQLAVSFIRGLQGDTPDHPRTIATPKHFAVHSGPEQGRHSFDVDVSAYDLEATYTPAFRAAIVDGHAGSVMCAYNALHGTPACASDWLLNTRLRNDWGFNGFVVSDCDAIEDMTRFHFFRQDNASASAAALKSGNDLNCGNTYRDLNQAIARGDIDESTLDQALIRLFTARQRLGTLQPREHDPYAAIGIK”: “not soluble”.
The result for “MSLERLIPIIAPQVPEKPLLNDSLGSGIGCSATLGRSTKFEDNFMCLKQDNVLFVGVFDGHAGHESALISAECFTKILPSFDFTNAIHQKNPEKDEENIQKFDFPKVENHLSPRRNHFRNVKTQENQIFGSQKIETKNIKNTQKIELKNSEKIELENSKGSENLNTKLIKTYLRMAFAQVNDELRNRKVKDGTTAVVVCLFENRKGAVAHVGDSLALLVGQTTSKLLTKMHRPSDKDEFYRMRKRNKSVSSDWKVDGKLSVSRSLGDFWCCGGMFDDADVSFFDLNDDALSIVLGCDGLWDYVDEGTVCNVVRELRDPVKAAKLLQDIAFASGSHDSISVIVVNVEPTEGHHHHHH” reads “soluble”.
The result for “MGSDKIHHHHHHMHVFNYGRSYLERGDARPIYLPELPLVRGALLPQAPLDMAGALRDAAPDAWGRRVIINRLMGLKGVGAHAVEFDELTYLLHSGSDRIGALDFQTSPDRYRPREAENATLEELLEAAERVDRGEPIPPALDKALFHGSSIGGARPKALIEDGQEKFIAKFSATNDTYAIVKAEYVAMRLAKEAAGLTVAAVRLVKANGKDVLLVKRFDRERTGAGWTRRAMVSALTLLGLSEMQARYASYHDLTDIIRARFTEPRDSLRELYGRMVFNVLSGNTDDHARNHAAFWNGESLALTPAYDLCPQQRTGREANQAMLIGQEDRRSRLETCRLAASAFLLNDVEARALIHAQIDAIGAAWDGICDEADLSKIDRAFLWRRQFLNDYAFEGFGR” reads “not soluble”; that for “MGSDKIHHHHHHMKKIGHRIKTRRKLKGLTQEALGLAVGVSKVSVSSWELGKNSMHPELLNKVAGVLGVDAHWLLTGESFATLEDEKDSVFWAPKYKNIKAAAGAGCCHDDCLDEDEDEVPIPIKFVKNQTNKDQIFCVCVSGDSMEPVLSDGSIIAMNSSDTIIKDGKMYLVKQDDLLRVKVIHLLPKDMVLKSYNPNFKDETYNIKKDNIQILGRVFWFTSGR”, “not soluble”; that for “MGSSHHHHHHSSGRENLYFQGHMQWETVIGLEIHAQLATQSKIFSGSSTAFGAAPNTQASLVDLAMPGTLPVLNEEAVRMACLFGLAIDARIDRQNVFARKNYFYPDLPKGYQTSQMDHPIVGKGHLDITLEDGTTKRIGITRAHLEEDAGKSLHEDFQGMSGIDLNRAGTPLLEIVSEPDIRSAKEAVAYVKAIHALVRYLGICDGNMAEGSLRCDCNVSVRPKGQAEFGTRAEIKNVNSFRFIEKAINHEIQRQIELIEDGGKVVQETRLYDPNKDETRSMRGKEEANDYRYFPCPDLLPVVIEPEYLAKLREQLPELPVQKRERFESQYGLSAYDASVLSASREMADYFEKVQGICGDAKLAANWVMVELGSLLNKDGLEIEQSPVSAEQLGGMILRIKDNTISGKLAKMVFEAMANGEGSADQIIEAKGLKQVTDSGAIEKMLDEVLAANAEQVEQYRAADEAKRGKMFGFFVGQAMKASKGKANPQQVNELLKKKLEA”, “soluble”.
